# Measured values: the supplement of paper PMC9112550, “Optimization of the antimicrobial peptide Bac7 by deep mutational scanning” (BMC Biology, 2022)
# Tested on: Escherichia coli TOP10
# Test: shrunken log2 fold change of peptide-encoding DNA abundance (4.5 h post-induction vs induction); higher = less antimicrobial activity (less host growth inhibition)
# Details: time post-induction: 4.5 h; library: site-saturation at positions 5, 18, 19, 20
# 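Note: peptides expressed intracellularly from a pBAD plasmid library in pooled LB shake-flask culture, induced with 0.3% L-arabinose, DNA abundance read by NGS, three biological replicates, DESeq2 with apeglm shrinkage.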
sequence,measurement,value
RRIRMRPPRLPRPRPRPCAGPRP,shrunken log2 fold change,0.213
RRIRFRPPRLPRPRPRPLHTPRP,shrunken log2 fold change,-0.262
RRIRMRPPRLPRPRPRPDGDPRP,shrunken log2 fold change,0.0211
RRIRCRPPRLPRPRPRPVEEPRP,shrunken log2 fold change,-0.0384
RRIRVRPPRLPRPRPRPWHWPRP,shrunken log2 fold change,-0.0605
RRIRHRPPRLPRPRPRPANCPRP,shrunken log2 fold change,-0.246
RRIRQRPPRLPRPRPRPWRAPRP,shrunken log2 fold change,0.0749
RRIRTRPPRLPRPRPRPHLYPRP,shrunken log2 fold change,-0.154
RRIRDRPPRLPRPRPRPQQYPRP,shrunken log2 fold change,-0.473
RRIRNRPPRLPRPRPRPCMSPRP,shrunken log2 fold change,-0.108
RRIRSRPPRLPRPRPRPMFAPRP,shrunken log2 fold change,0.154
RRIRSRPPRLPRPRPRPWDLPRP,shrunken log2 fold change,0.056
RRIRKRPPRLPRPRPRPLKCPRP,shrunken log2 fold change,-0.072
RRIRIRPPRLPRPRPRPQPNPRP,shrunken log2 fold change,-0.267
RRIRTRPPRLPRPRPRPLKAPRP,shrunken log2 fold change,0.0363
RRIRRRPPRLPRPRPRPRKFPRP,shrunken log2 fold change,0.491
RRIRSRPPRLPRPRPRPTSNPRP,shrunken log2 fold change,0.133
RRIRTRPPRLPRPRPRPAWSPRP,shrunken log2 fold change,0.358
RRIRNRPPRLPRPRPRPGIRPRP,shrunken log2 fold change,0.0989
RRIRMRPPRLPRPRPRPYEIPRP,shrunken log2 fold change,0.0237
RRIRYRPPRLPRPRPRPFQDPRP,shrunken log2 fold change,-0.139
RRIRSRPPRLPRPRPRPDIFPRP,shrunken log2 fold change,-0.135
RRIRHRPPRLPRPRPRPHQKPRP,shrunken log2 fold change,-0.0284
RRIRTRPPRLPRPRPRPHSCPRP,shrunken log2 fold change,-0.0159
RRIRTRPPRLPRPRPRPNWPPRP,shrunken log2 fold change,-0.0423
RRIRKRPPRLPRPRPRPYLQPRP,shrunken log2 fold change,-0.599
RRIRLRPPRLPRPRPRPALHPRP,shrunken log2 fold change,0.135
RRIRCRPPRLPRPRPRPWHAPRP,shrunken log2 fold change,-0.271
RRIRDRPPRLPRPRPRPNWYPRP,shrunken log2 fold change,-0.476
RRIRMRPPRLPRPRPRPVFHPRP,shrunken log2 fold change,-0.341
RRIRVRPPRLPRPRPRPWDHPRP,shrunken log2 fold change,-0.103
RRIRLRPPRLPRPRPRPRVLPRP,shrunken log2 fold change,-0.132
RRIRYRPPRLPRPRPRPEDAPRP,shrunken log2 fold change,-0.0333
RRIRARPPRLPRPRPRPSHNPRP,shrunken log2 fold change,-0.245
RRIRPRPPRLPRPRPRPPCVPRP,shrunken log2 fold change,0.128
RRIRGRPPRLPRPRPRPWTCPRP,shrunken log2 fold change,-0.0593
RRIRHRPPRLPRPRPRPFHKPRP,shrunken log2 fold change,-0.0218
RRIRCRPPRLPRPRPRPFHYPRP,shrunken log2 fold change,-2.22e-05
RRIRPRPPRLPRPRPRPDDSPRP,shrunken log2 fold change,0.0427
RRIRMRPPRLPRPRPRPQMLPRP,shrunken log2 fold change,0.186
RRIRKRPPRLPRPRPRPWVTPRP,shrunken log2 fold change,0.000269
RRIRCRPPRLPRPRPRPNKPPRP,shrunken log2 fold change,0.0511
RRIRERPPRLPRPRPRPDTMPRP,shrunken log2 fold change,-0.336
RRIRYRPPRLPRPRPRPMEEPRP,shrunken log2 fold change,-0.138
RRIRSRPPRLPRPRPRPVSDPRP,shrunken log2 fold change,0.32
RRIRRRPPRLPRPRPRPNFSPRP,shrunken log2 fold change,0.211
RRIRCRPPRLPRPRPRPHRAPRP,shrunken log2 fold change,-0.096
RRIRRRPPRLPRPRPRPWPDPRP,shrunken log2 fold change,0.0719
RRIRARPPRLPRPRPRPSRLPRP,shrunken log2 fold change,0.487
RRIRNRPPRLPRPRPRPYNCPRP,shrunken log2 fold change,-0.385
RRIRNRPPRLPRPRPRPQIDPRP,shrunken log2 fold change,-0.0557
RRIRLRPPRLPRPRPRPPWKPRP,shrunken log2 fold change,0.153
RRIRLRPPRLPRPRPRPNVRPRP,shrunken log2 fold change,-0.00281
RRIRPRPPRLPRPRPRPDMSPRP,shrunken log2 fold change,-0.303
RRIRKRPPRLPRPRPRPDVEPRP,shrunken log2 fold change,0.962
RRIRPRPPRLPRPRPRPQKGPRP,shrunken log2 fold change,-0.0684
RRIRDRPPRLPRPRPRPMAPPRP,shrunken log2 fold change,0.982
RRIRERPPRLPRPRPRPYGMPRP,shrunken log2 fold change,-0.207
RRIRGRPPRLPRPRPRPVVGPRP,shrunken log2 fold change,0.735
RRIRHRPPRLPRPRPRPLKEPRP,shrunken log2 fold change,-0.0179
RRIRNRPPRLPRPRPRPCRNPRP,shrunken log2 fold change,-0.437
RRIRTRPPRLPRPRPRPWVLPRP,shrunken log2 fold change,-0.0462
RRIRNRPPRLPRPRPRPIYSPRP,shrunken log2 fold change,-0.0185
RRIRERPPRLPRPRPRPYQDPRP,shrunken log2 fold change,-0.0275
RRIRERPPRLPRPRPRPIWTPRP,shrunken log2 fold change,-0.0563
RRIRMRPPRLPRPRPRPIEQPRP,shrunken log2 fold change,0.0161
RRIRMRPPRLPRPRPRPNKCPRP,shrunken log2 fold change,0.216
RRIRVRPPRLPRPRPRPGVNPRP,shrunken log2 fold change,0.101
RRIRKRPPRLPRPRPRPSHTPRP,shrunken log2 fold change,-0.0409
RRIRERPPRLPRPRPRPNIRPRP,shrunken log2 fold change,-0.273
RRIRKRPPRLPRPRPRPPKNPRP,shrunken log2 fold change,0.546
RRIRYRPPRLPRPRPRPAQTPRP,shrunken log2 fold change,0.0654
RRIRHRPPRLPRPRPRPNATPRP,shrunken log2 fold change,0.255
RRIRARPPRLPRPRPRPNYTPRP,shrunken log2 fold change,-0.329
RRIRKRPPRLPRPRPRPWLEPRP,shrunken log2 fold change,-0.00226
RRIRDRPPRLPRPRPRPKNLPRP,shrunken log2 fold change,-0.0874
RRIRLRPPRLPRPRPRPTQLPRP,shrunken log2 fold change,0.221
RRIRARPPRLPRPRPRPCFNPRP,shrunken log2 fold change,0.0639
RRIRGRPPRLPRPRPRPGCVPRP,shrunken log2 fold change,1.08
RRIRWRPPRLPRPRPRPHEHPRP,shrunken log2 fold change,0.0185
RRIRFRPPRLPRPRPRPAVEPRP,shrunken log2 fold change,0.509
RRIRARPPRLPRPRPRPWFGPRP,shrunken log2 fold change,0.118
RRIRCRPPRLPRPRPRPRDLPRP,shrunken log2 fold change,0.108
RRIRIRPPRLPRPRPRPICSPRP,shrunken log2 fold change,-0.118
RRIRHRPPRLPRPRPRPCMPPRP,shrunken log2 fold change,0.0401
RRIRWRPPRLPRPRPRPYDTPRP,shrunken log2 fold change,-0.495
RRIRNRPPRLPRPRPRPFWGPRP,shrunken log2 fold change,-0.157
RRIRPRPPRLPRPRPRPSWQPRP,shrunken log2 fold change,-0.0441
RRIRCRPPRLPRPRPRPITWPRP,shrunken log2 fold change,-0.189
RRIRIRPPRLPRPRPRPQGKPRP,shrunken log2 fold change,-0.385
RRIRARPPRLPRPRPRPSEAPRP,shrunken log2 fold change,0.52
RRIRERPPRLPRPRPRPKGDPRP,shrunken log2 fold change,-0.0914
RRIRVRPPRLPRPRPRPCWHPRP,shrunken log2 fold change,-0.0327
RRIRLRPPRLPRPRPRPAYEPRP,shrunken log2 fold change,2.25
RRIRIRPPRLPRPRPRPERAPRP,shrunken log2 fold change,0.761
RRIRTRPPRLPRPRPRPLYVPRP,shrunken log2 fold change,-0.4
RRIRGRPPRLPRPRPRPLFDPRP,shrunken log2 fold change,0.548
RRIRMRPPRLPRPRPRPCWGPRP,shrunken log2 fold change,-0.078
RRIRYRPPRLPRPRPRPARRPRP,shrunken log2 fold change,0.234
RRIRHRPPRLPRPRPRPIWWPRP,shrunken log2 fold change,0.0995
RRIRQRPPRLPRPRPRPCKNPRP,shrunken log2 fold change,-0.409
RRIRPRPPRLPRPRPRPRLTPRP,shrunken log2 fold change,0.293
RRIRVRPPRLPRPRPRPQTYPRP,shrunken log2 fold change,-0.647
RRIRFRPPRLPRPRPRPVHKPRP,shrunken log2 fold change,-0.142
RRIRQRPPRLPRPRPRPCYLPRP,shrunken log2 fold change,-0.195
RRIRPRPPRLPRPRPRPQRTPRP,shrunken log2 fold change,0.113
RRIRGRPPRLPRPRPRPGDTPRP,shrunken log2 fold change,0.616
RRIRDRPPRLPRPRPRPFFFPRP,shrunken log2 fold change,0.483
RRIRNRPPRLPRPRPRPDNKPRP,shrunken log2 fold change,-1.35
RRIRVRPPRLPRPRPRPTVTPRP,shrunken log2 fold change,0.167
RRIRKRPPRLPRPRPRPSEKPRP,shrunken log2 fold change,0.428
RRIRTRPPRLPRPRPRPKTMPRP,shrunken log2 fold change,-0.0972
RRIRARPPRLPRPRPRPSESPRP,shrunken log2 fold change,0.0591
RRIRCRPPRLPRPRPRPLNEPRP,shrunken log2 fold change,-0.0566
RRIRNRPPRLPRPRPRPFYLPRP,shrunken log2 fold change,-0.0716
RRIRIRPPRLPRPRPRPNWQPRP,shrunken log2 fold change,-0.0358
RRIRLRPPRLPRPRPRPCVLPRP,shrunken log2 fold change,-0.44
RRIRFRPPRLPRPRPRPWHCPRP,shrunken log2 fold change,-0.028
RRIRKRPPRLPRPRPRPCLQPRP,shrunken log2 fold change,0.194
RRIRERPPRLPRPRPRPWYFPRP,shrunken log2 fold change,-0.171
RRIRQRPPRLPRPRPRPQIGPRP,shrunken log2 fold change,-0.0384
RRIRERPPRLPRPRPRPVTFPRP,shrunken log2 fold change,-0.019
RRIRGRPPRLPRPRPRPGHNPRP,shrunken log2 fold change,0.0636
RRIRKRPPRLPRPRPRPFVYPRP,shrunken log2 fold change,-0.014
RRIRIRPPRLPRPRPRPFECPRP,shrunken log2 fold change,-0.0837
RRIRSRPPRLPRPRPRPMSYPRP,shrunken log2 fold change,0.0443
RRIRDRPPRLPRPRPRPQHLPRP,shrunken log2 fold change,-0.444
RRIRARPPRLPRPRPRPVEWPRP,shrunken log2 fold change,0.544
RRIRMRPPRLPRPRPRPVPWPRP,shrunken log2 fold change,0.581
RRIRFRPPRLPRPRPRPNLIPRP,shrunken log2 fold change,-0.347
RRIRGRPPRLPRPRPRPIPQPRP,shrunken log2 fold change,0.358
RRIRIRPPRLPRPRPRPPDNPRP,shrunken log2 fold change,-0.368
RRIRCRPPRLPRPRPRPHYQPRP,shrunken log2 fold change,-1.29
RRIRGRPPRLPRPRPRPAFLPRP,shrunken log2 fold change,0.367
RRIRPRPPRLPRPRPRPYDIPRP,shrunken log2 fold change,-0.88
RRIRERPPRLPRPRPRPGCTPRP,shrunken log2 fold change,-0.169
RRIRIRPPRLPRPRPRPEDQPRP,shrunken log2 fold change,-0.000348
RRIRCRPPRLPRPRPRPEIEPRP,shrunken log2 fold change,-0.00676
RRIRIRPPRLPRPRPRPFLSPRP,shrunken log2 fold change,-0.282
RRIRCRPPRLPRPRPRPGHKPRP,shrunken log2 fold change,-0.514
RRIRGRPPRLPRPRPRPWGVPRP,shrunken log2 fold change,0.287
RRIRNRPPRLPRPRPRPVPDPRP,shrunken log2 fold change,-0.0278
RRIRVRPPRLPRPRPRPQDPPRP,shrunken log2 fold change,0.0381
RRIRGRPPRLPRPRPRPNTDPRP,shrunken log2 fold change,0.197
RRIRARPPRLPRPRPRPDAYPRP,shrunken log2 fold change,0.522
RRIRRRPPRLPRPRPRPRCFPRP,shrunken log2 fold change,0.474
RRIRLRPPRLPRPRPRPHYLPRP,shrunken log2 fold change,-0.278
RRIRQRPPRLPRPRPRPHYKPRP,shrunken log2 fold change,-1.18
RRIRYRPPRLPRPRPRPVSCPRP,shrunken log2 fold change,-0.0731
RRIRPRPPRLPRPRPRPIEAPRP,shrunken log2 fold change,0.0713
